*1 amine or outer side, *2 acyl side, *3 side chain or, on linkers, in order; H or OH if unused. Bridges are numbered along the chain shown (N, C = ends). Primed or numbered codes have the meaning given here. Where no end group is shown, it is not given here. Side-chain parts run from the residue outwards. [ ]: non-standard residue; d: D form. The star is where a group is joined. Ttds = 1,13-diamino-4,7,10-trioxatridecan-succinamic acid, NCCCOCCOCCOCCCNC(=O)CCC(=O)*; DOTA(In) = O=C1CN2CCN3CCN(CC(=O)*)CCN(CC2)CC(=O)[O][In]([O]1)[O]C(=O)C3; NH(1-deoxy-D-glucityl) = OC[C@@H](O)[C@@H](O)[C@H](O)[C@@H](O)CN*; APAc″ = 4-amino-1-carboxymethylpiperidine, NC1CCN(CC(=O)*)CC1; dE(AGLU) = D-glutamic acid bearing 1-amino-1-deoxy-D-glucitol; Pro(trans-4-NH2) = O=C([C@@H]1C[C@@H](N[*:3])CN1[*:1])[*:2]; DOTA = O=C(O)CN1CCN(CC(=O)O)CCN(CC(=O)*)CCN(CC(=O)O)CC1; MeO2kDaPEGAc = polydisperse 2 kDa PEG (methoxy, acetyl); 3MeBn = 3-methyl-benzylidene (derived from 1,3-xylene); 2Lut = 2,6-lutidylidene bridge between two thiols; N(CH2CH2CO)Gly = O=C(CN(CCC(=O)[*:3])[*:1])[*:2]; Trp(5-Br) = N[C@@H](Cc1c[nH]c2ccc(Br)cc12)C(=O)O; Trp(5-Cl) = N[C@@H](Cc1c[nH]c2ccc(Cl)cc12)C(=O)O; Pyridine(2,6-diCH2) = c1cc(C[*:1])nc(C[*:2])c1; Trp(6-F) = N[C@@H](Cc1c[nH]c2cc(F)ccc12)C(=O)O; Cysol = L-cysteinol, OC[C@H](CS[*:3])N[*:1]; APAc = 4-amino-1-carboxymethylpiperidine; mXylylene = c1cc(C[*:1])cc(C[*:2])c1; LuDOTA = DOTA Lutetium(III) complex; Glutaryl = O=C(CCCC(=O)[*:2])[*:1]; AGLU = 1-amino-1-deoxy-D-glucitol; Hyp = O=C(O)[C@@H]1C[C@@H](O)CN1; Cysteamide = C(CS[*:3])N[*:1]; dGlu(AGLU) = not defined here; Suc = O=C(CCC(=O)[*:2])[*:1]; Api = NC1(C(=O)O)CCNCC1; Thp = NC1(C(=O)O)CCOCC1; AEEA = NCCOCCOCC(=O)O; Aib = CC(C)(N)C(=O)O; Nlys = NCCCCNCC(=O)O; Sar = CNCC(=O)O
Molecular target: human Gastric Inhibitory Peptide Receptor (human) (UniProt P48546)
Sequence (P48546 22-466 limits assumed): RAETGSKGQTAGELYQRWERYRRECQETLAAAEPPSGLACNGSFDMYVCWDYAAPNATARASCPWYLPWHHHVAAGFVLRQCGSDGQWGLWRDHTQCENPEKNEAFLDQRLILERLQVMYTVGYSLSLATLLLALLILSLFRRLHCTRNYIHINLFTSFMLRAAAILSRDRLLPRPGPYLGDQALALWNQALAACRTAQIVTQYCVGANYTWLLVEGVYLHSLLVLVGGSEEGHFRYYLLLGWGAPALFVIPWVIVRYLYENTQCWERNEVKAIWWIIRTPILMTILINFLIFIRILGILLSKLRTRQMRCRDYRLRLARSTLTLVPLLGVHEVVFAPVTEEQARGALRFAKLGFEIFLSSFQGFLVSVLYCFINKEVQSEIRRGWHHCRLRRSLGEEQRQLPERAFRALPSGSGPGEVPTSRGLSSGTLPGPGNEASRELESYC
Assay: FACS competition with GIP-057 on CHO-K1-hGIPR cells; pIC50 category A: >8.0

Row | pIC50 [pic50] | Binder
1 | > 8 | {DOTA(In)-Ttds}-DW[Trp(5-Cl)][Sar]E[dL]C[Aib]LI[Cysteamide] (linker 7-11 via 3MeBn; also: DOTA as indium complex (InDOTA)) [InDOTA-Ttds-Asp-Trp-5Clw-Nmg-Glu-leu-[Cys(3MeBn)-Aib-Leu-Ile-AET]]
2 | > 8 | {DOTA-Ttds}-D[Trp(6-F)][Trp(5-Br)]PE[dL]C[Aib]LI[Cysteamide] (linker 7-11 via mXylylene) [DOTA-Ttds-Asp-6Fw-5Brw-Pro-Glu-leu-[Cys(3MeBn)-Aib-Leu-Ile-AET]]
3 | > 8 | {DOTA(In)-Ttds}-DW[Trp(5-Cl)]PE[dL]C[Thp]LI[Cysteamide] (linker 7-11 via mXylylene; also: indium(III) complexed in DOTA) [InDOTA-Ttds-Asp-Trp-5Clw-Pro-Glu-leu-[Cys(3MeBn)-Thp-Leu-Ile-AET]]
4 | > 8 | Ac-DW[Trp(5-Cl)][Hyp]E[dL]C[Thp]LI[Cysol]-OH (linker 7-11 via Pyridine(2,6-diCH2)) [Ac-Asp-Trp-5Clw-Hyp-Glu-leu-[Cys(2Lut)-Thp-Leu-Ile-Cysol]-OH]
5 | > 8 | {LuDOTA-APAc″}-DW[Trp(5-Cl)]PE[dL]C[Aib]LI[Cysteamide] (linker 7-11 via mXylylene) [LuDOTA-APAc-Asp-Trp-5Clw-Pro-Glu-leu-[Cys(3MeBn)-Aib-Leu-Ile-AET]]
6 | > 8 | {LuDOTA-Ttds}-DW[Trp(5-Cl)][Sar]E[dL]C[Aib]LI[Cysteamide] (linker 7-11 via mXylylene) [LuDOTA-Ttds-Asp-Trp-5Clw-Nmg-Glu-leu-[Cys(3MeBn)-Aib-Leu-Ile-AET]]

Continued, binder first:

Row | Binder | pIC50 [pic50]
7 | {AGLU-Glutaryl}-DW[Trp(5-Cl)][Hyp]E[dL]C[Thp]LIC-{APAc-dE(AGLU)-NH2} (linker 7-11 via Pyridine(2,6-diCH2)) [AGLU-Glutar-Asp-Trp-5Clw-Hyp-Glu-leu-[Cys(2Lut)-Thp-Leu-Ile-Cys]-APAc-glu(AGLU)-NH2] | > 8
8 | {AGLU-Glutaryl-APAc}-DW[Trp(5-Cl)][Pro(trans-4-NH2)]E[dL]C[Api](DOTA)LIC-{APAc-dE(AGLU)-NH2} (linker 7-11 via Pyridine(2,6-diCH2)) [AGLU-Glutar-APAc-Asp-Trp-5Clw-Tap-Glu-leu-[Cys(2Lut)-Apc(DOTA)-Leu-Ile-Cys]-APAc-glu(AGLU)-NH2] | > 8
9 | MeO2kDaPEGAc-DW[Trp(5-Cl)][Hyp]E[dL]C[Thp]LIC-{dK(DOTA)-NH2} (linker 7-11 via Pyridine(2,6-diCH2)) [MeO2kDaPEGAc-Asp-Trp-5Clw-Hyp-Glu-leu-[Cys(2Lut)-Thp-Leu-Ile-Cys]-lys(DOTA)-NH2] | > 8
10 | Ac-DW[Trp(5-Cl)][N(CH2CH2CO)Gly](NH(1-deoxy-D-glucityl))E[dL]C[Thp]LIC-NH2 (linker 7-11 via Pyridine(2,6-diCH2)) [Ac-Asp-Trp-5Clw-Nglu(AGLU)-Glu-leu-[Cys(2Lut)-Thp-Leu-Ile-Cys]-NH2] | > 8
11 | {DOTA-dGlu(AGLU)-AEEA}-DW[Trp(5-Cl)][Pro(trans-4-NH2)]E[dL]C[Api]([Glutaryl-NH(1-deoxy-D-glucityl)])LIC-{APAc-dGlu(AGLU)-NH2} (linker 7-11 via 2Lut; reading uncertain) | > 8
12 | {DOTA(In)-Ttds}-DW[Trp(5-Cl)]PE[dL]C[Aib]LI[Cysteamide] (linker 7-11 via 2Lut; also: DOTA as indium complex (InDOTA)) [InDOTA-Ttds-Asp-Trp-5Clw-Pro-Glu-leu-[Cys(2Lut)-Aib-Leu-Ile-AET]] | > 8
13 | {LuDOTA-Ttds}-DW[Trp(5-Cl)]PE[dL]C[Aib]LI[Cysteamide] (linker 7-11 via Pyridine(2,6-diCH2)) [LuDOTA-Ttds-Asp-Trp-5Clw-Pro-Glu-leu-[Cys(2Lut)-Aib-Leu-Ile-AET]] | > 8
14 | {AGLU-Glutaryl}-DW[Trp(5-Cl)][Hyp]E[dL]C[Thp]LIC-NH2 (linker 7-11 via Pyridine(2,6-diCH2)) [AGLU-Glutar-Asp-Trp-5Clw-Hyp-Glu-leu-[Cys(2Lut)-Thp-Leu-Ile-Cys]-NH2] | > 8
15 | W[Trp(5-Cl)][Hyp]E[dL]C[Thp]LIC-{dK(DOTA)-NH2} (linker 6-10 via 2Lut; not fully specified (N-terminus)) [HO-Succinyl-Trp-5Clw-Hyp-Glu-leu-[Cys(2Lut)-Thp-Leu-Ile-Cys]-lys(DOTA)-NH2] | > 8
16 | Ac-DW[Trp(5-Cl)][Pro(trans-4-NH2)]E[dL]C[Thp]LIC-NH2 (linker 7-11 via Pyridine(2,6-diCH2); not fully specified (residue 4); printed as Ac-Asp-Trp-5Clw-Tap(AGLU-Glutar)-Glu-leu-[Cys(2Lut)-Thp-Leu-Ile-Cys]-NH2) [Ac-Asp-Trp-5Clw-Tap(AGLU-Glutar)-Glu-leu-[Cys(2Lut)-Thp-Leu-Ile-Cys]-NH2] | > 8
17 | Ac-DW[Trp(5-Cl)][Nlys]E[dL]C[Thp]LIC-NH2 (linker 7-11 via Pyridine(2,6-diCH2)) [Ac-Asp-Trp-5Clw-Nlys-Glu-leu-[Cys(2Lut)-Thp-Leu-Ile-Cys]-NH2] | > 8
18 | {AGLU-Glutaryl-APAc}-DW[Trp(5-Br)][Pro(trans-4-NH2)]E[dL]C[Api](DOTA)LIC-{APAc-dE(AGLU)-NH2} (linker 7-11 via Pyridine(2,6-diCH2)) [AGLU-Glutar-APAc-Asp-Trp-5Brw-Tap-Glu-leu-[Cys(2Lut)-Apc(DOTA)-Leu-Ile-Cys]-APAc-glu(AGLU)-NH2] | > 8
19 | Suc-W[Trp(5-Cl)][Hyp]E[dL]C[Thp]LIC-{Lys(DOTA)-NH2} (linker 6-10 via Pyridine(2,6-diCH2)) [HO-Succinyl-Trp-5Clw-Hyp-Glu-leu-[Cys(2Lut)-Thp-Leu-Ile-Cys]-Lys(DOTA)-NH2] | > 8
